{"source": "paper PMC4027165", "about": "“SAXS analysis of the tRNA-modifying enzyme complex MnmE/MnmG reveals a novel interaction mode and GTP-induced oligomerization” (Nucleic Acids Research, 2014)", "binders": {"B1": {"name": "MnmE from Escherichia coli, wild type (enzyme, UniProt P25522 1-454, looked up)", "chain": "MSDNDTIVAQATPPGRGGVGILRISGFKAREVAETVLGKLPKPRYADYLPFKDADGSVLDQGIALWFPGPNSFTGEDVLELQGHGGPVILDLLLKRILTIPGLRIARPGEFSERAFLNDKLDLAQAEAIADLIDASSEQAARSALNSLQGAFSARVNHLVEALTHLRIYVEAAIDFPDEEIDFLSDGKIEAQLNDVIADLDAVRAEARQGSLLREGMKVVIAGRPNAGKSSLLNALAGREAAIVTDIAGTTRDVLREHIHIDGMPLHIIDTAGLREASDEVERIGIERAWQEIEQADRVLFMVDGTTTDAVDPAEIWPEFIARLPAKLPITVVRNKADITGETLGMSEVNGHALIRLSARTGEGVDVLRNHLKQSMGFDTNMEGGFLARRRHLQALEQAAEHLQQGKAQLLGAWAGELLAEELRLAQQNLSEITGEFTSDDLLGRIFSSFCIGK", "notes": "tRNA modification GTPase MnmE (formerly TrmE), Escherichia coli; open reading frame cloned in a pET20 vector; Homodimer of about 50-kDa subunits; Used nucleotide-free, with GDP-AlFx or with GppNHp depending on the experiment; also called TrmE; MnmE wt"}, "B2": {"name": "MnmE (E282A) (enzyme, Escherichia coli, UniProt P25522 1-454, looked up)", "chain": "B1 chain with E282A", "notes": "MnmE, Escherichia coli, slowly GTP-hydrolysing point variant; Variant of m1; also called slow hydrolyzing mutant MnmE (E282A)"}, "B3": {"name": "MnmE (Y169A, D175A and F176A) with additional S153A (enzyme, Escherichia coli, UniProt P25522 1-454, looked up)", "chain": "B1 chain with S153A, Y169A, D175A, F176A", "notes": "MnmE, Escherichia coli, point variant made by QuikChange mutagenesis of the pET20 construct; Variant of m6 with Ser153 also changed to alanine"}, "B4": {"name": "MnmG from Aquifex aeolicus (enzyme, UniProt O66962 1-617, looked up)", "chain": "MAWVVDEFDVVVIGGGHAGIEAALAAARMGAKTAMFVLNADTIGQMSCNPAIGGIAKGIVVREIDALGGEMGKAIDQTGIQFKMLNTRKGKAVQSPRAQADKKRYREYMKKVCENQENLYIKQEEVVDIIVKNNQVVGVRTNLGVEYKTKAVVVTTGTFLNGVIYIGDKMIPGGRLGEPRSEGLSDFYRRFDFPLIRFKTGTPARLDKRTIDFSALEVAPGDDPPPKFSFWTEPVGSYWFPKGKEQVNCWITYTTPKTHEIIRKNLHRTALYGGLIKGIGPRYCPSIEDKIVKFPDKERHQIFLEPEGLDTIEIYPNGLSTSLPEEVQWEMYRSIPGLENVVLIRPAYAIEYDVVPPTELYPTLETKKIRGLFHAGNFNGTTGYEEAAGQGIVAGINAALRAFGKEPIYLRRDESYIGVMIDDLTTKGVTEPYRLFTSRSEYRLYIRQDNAILRLAKLGRELGLLSEEQYKLVKELEREIEKWKEFYKSERVSVAVGGDTRSYSVATLMTMNYTLDDVKEKFGYEVPQHPYVKEEVEIQLKYEPYIERERKLNEKLKKLEDTKIPPDIDYDKIPGLTKEAREKLKKFKPITVGQASRIDGITPAAITALLVYLGKLD", "notes": "tRNA uridine 5-carboxymethylaminomethyl modification enzyme MnmG, Aquifex aeolicus; open reading frame cloned in a pET28a vector; Mainly a monomer by SEC-MALS, with a minor dimer peak; SAXS was measured on the dimer peak; also called A. aeolicus MnmG; GidA"}}, "key": {"[1]": {"target": "the molecule itself", "assay": "SAXS + SEC-MALS; E. coli MnmE without nucleotides; SAXS in batch mode, 20 mM Hepes pH 7.5, 150 mM KCl, 5 mM MgCl2, 2 mM DTT; molecular weight from SAXS and SEC-MALS"}, "[2]": {"target": "T1, MnmG from Escherichia coli, wild type (Escherichia coli, UniProt P0A6U3 1-629)", "T1 construct": "tRNA uridine 5-carboxymethylaminomethyl modification enzyme MnmG (formerly GidA), Escherichia coli; open reading frame cloned in a pET14b vector; Homodimer of 70-kDa subunits; also called GidA; MnmG wt", "T1 sequence (looked up)": "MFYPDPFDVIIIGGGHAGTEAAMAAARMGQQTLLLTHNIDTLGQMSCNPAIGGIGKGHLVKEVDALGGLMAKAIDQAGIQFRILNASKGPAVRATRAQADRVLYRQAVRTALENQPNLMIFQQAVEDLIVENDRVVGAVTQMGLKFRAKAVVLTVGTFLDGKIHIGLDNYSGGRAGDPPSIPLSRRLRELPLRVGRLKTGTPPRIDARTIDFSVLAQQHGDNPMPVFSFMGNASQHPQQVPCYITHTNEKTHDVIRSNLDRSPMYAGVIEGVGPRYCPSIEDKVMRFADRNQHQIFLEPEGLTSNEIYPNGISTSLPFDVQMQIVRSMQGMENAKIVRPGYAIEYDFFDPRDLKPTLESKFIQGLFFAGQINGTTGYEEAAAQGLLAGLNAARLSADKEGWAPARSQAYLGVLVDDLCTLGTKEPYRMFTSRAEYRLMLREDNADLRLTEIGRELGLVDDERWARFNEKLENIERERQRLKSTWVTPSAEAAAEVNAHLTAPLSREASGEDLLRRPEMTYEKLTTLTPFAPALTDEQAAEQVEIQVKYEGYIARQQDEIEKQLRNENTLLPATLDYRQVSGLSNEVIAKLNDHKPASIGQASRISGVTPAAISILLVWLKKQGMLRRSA", "assay": "ITC; 278 K; 20 mM Hepes pH 7.5, 150 mM NaCl, 5 mM MgCl2, 2 mM BME, 1 mM FAD; 15 uM in the cell, 300 uM in the syringe; titrated in both directions; one site model; apparent", "settings": "both partners purified"}, "[3]": {"target": "T1, MnmG from Escherichia coli, wild type", "assay": "SAXS + SEC-MALS; E. coli MnmE and MnmG mixed equimolar without nucleotides, complex purified by gel filtration; SAXS with online HPLC; molecular weight from SAXS and SEC-MALS", "settings": "both partners purified"}, "[4]": {"target": "T1, MnmG from Escherichia coli, wild type", "assay": "SAXS + SEC-MALS; MnmE-GDP-AlFx mixed in 2-fold molar excess with MnmG; SAXS with online HPLC; molecular weight from SAXS and SEC-MALS", "settings": "both partners purified"}, "[5]": {"target": "T1, MnmG from Escherichia coli, wild type", "assay": "SEC; analytical gel filtration of 66.7 uM MnmE(E282A)-MnmG complex mixed with 100 uM GTP, aliquots between 0 min and 24 h; 20 mM Hepes pH 7.5, 150 mM KCl, 5 mM MgCl2, 2 mM DTT", "settings": "both partners purified"}, "[6]": {"target": "T1, MnmG from Escherichia coli, wild type", "assay": "ITC; 278 K; 20 mM Hepes pH 7.5, 150 mM NaCl, 5 mM MgCl2, 2 mM BME, 1 mM FAD; variants: 700 uM MnmE in the syringe into 50 uM MnmG in the cell and vice versa; one site model; apparent", "settings": "both partners purified"}, "[7]": {"target": "the molecule itself", "assay": "SEC-MALS + other: SAXS; A. aeolicus MnmG alone; SEC-MALS shows mainly monomer and a minor dimer peak; SAXS with online HPLC gel filtration on the dimer peak"}}, "note": "Residue numbers refer to the chain shown, from its start. Names may count otherwise. “And” between values parts separate entries of the source, which are not always exact repeats. Equal entries are not always repeated.", "data": [{"binder": "B1", "values": [{"measurement": "stoichiometry N", "setting": "[1]", "value": 2}, {"measurement": "Kd", "setting": "[2]", "value": "3 µM and 7 µM"}, {"measurement": "stoichiometry N", "setting": "[2]", "value": 0.5}, {"measurement": "stoichiometry N", "setting": "[3]", "value": 1}, {"measurement": "stoichiometry N", "setting": "[4]", "value": 2}]}, {"binder": "B2", "values": [{"measurement": "binding result", "setting": "[5]", "value": "binds"}]}, {"binder": "B3", "values": [{"measurement": "fold decrease in apparent affinity against wild type", "setting": "[6]", "value": "≤ 10", "unit": "fold"}]}, {"binder": "B4", "values": [{"measurement": "stoichiometry N", "setting": "[7]", "value": 2}]}]}
